Starred links: 1 amine or outer side, 2 acyl side, 3 side chain; linkers in the order of their positions; H or OH if unused. Positions of bridges follow the written chain, without caps; N, C: chain ends. Non-standard residues stand in square brackets, D forms with d. Groups on a side chain read outwards from the residue. No end group written: not given here. *: point of attachment. N_Butyl_Phe = CCCCN([C@@H](Cc1ccccc1)C(=O)[*:2])[*:1]; C18 diacid = O=C(O)CCCCCCCCCCCCCCCCC(=O)*; Dip = N[C@H](C(=O)O)C(c1ccccc1)c1ccccc1; γGlu = O=C(O)[C@H](CCC(=O)[*:2])N[*:1]; Palmitoyl = CCCCCCCCCCCCCCCC(=O)*; β3hF = N[C@H](CC(=O)O)Cc1ccccc1; Isovaleryl = CC(C)CC(=O)*; Dap = NC[C@H](N)C(=O)O; AEEA = NCCOCCOCC(=O)O; Ahx = NCCCCCC(=O)O; NHPr = CCCN*
T1: human ferroportin (SLC40A1) fused in frame with GFP, stably expressed in HEK293 cells (human, UniProt Q9NP59 1-571)
T1 sequence (looked up): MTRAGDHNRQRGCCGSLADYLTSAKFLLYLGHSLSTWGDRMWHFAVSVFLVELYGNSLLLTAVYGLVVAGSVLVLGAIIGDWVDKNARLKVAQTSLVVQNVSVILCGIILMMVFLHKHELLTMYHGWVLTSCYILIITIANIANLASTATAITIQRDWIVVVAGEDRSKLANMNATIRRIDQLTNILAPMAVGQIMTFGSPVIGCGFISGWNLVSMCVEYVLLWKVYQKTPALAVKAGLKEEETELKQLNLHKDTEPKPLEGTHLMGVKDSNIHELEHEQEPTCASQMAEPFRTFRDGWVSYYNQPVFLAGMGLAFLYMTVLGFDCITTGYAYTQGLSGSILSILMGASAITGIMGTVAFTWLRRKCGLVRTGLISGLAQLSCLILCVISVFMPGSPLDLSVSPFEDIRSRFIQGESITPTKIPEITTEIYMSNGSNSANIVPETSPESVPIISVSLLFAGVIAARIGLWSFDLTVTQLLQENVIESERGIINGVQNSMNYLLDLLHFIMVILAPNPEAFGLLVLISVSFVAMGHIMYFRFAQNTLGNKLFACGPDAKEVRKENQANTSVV

B1: Isovaleric Acid-L-T-H-[Dpa]-P-L-I-[Lys(Ahx_Palm)]-L-NH2 (peptide)
peptide: Isovaleryl-LTH[Dip]PLIK([Ahx-Palmitoyl])L-NH2
SMILES: CCCCCCCCCCCCCCCC(=O)NCCCCCC(=O)NCCCC[C@H](NC(=O)[C@@H](NC(=O)[C@H](CC(C)C)NC(=O)[C@@H]1CCCN1C(=O)[C@@H](NC(=O)[C@H](Cc1c[nH]cn1)NC(=O)[C@@H](NC(=O)[C@H](CC(C)C)NC(=O)CC(C)C)[C@@H](C)O)C(c1ccccc1)c1ccccc1)[C@@H](C)CC)C(=O)N[C@@H](CC(C)C)C(N)=O
B2: Isovaleric Acid-E-T-H-F-P-D-I-[Lys(1PEG2_1PEG2_IsoGlu_C18_Diacid)]-F-E-P-R-S-K-G-Dap-K-NH2 (peptide)
peptide: Isovaleryl-ETHFPDIK([AEEA-AEEA-γGlu-C18 diacid])FEPRSKG[Dap]K-NH2
modifications: lactam 6-16
SMILES: CC[C@H](C)[C@@H]1NC(=O)[C@@H](NC(=O)[C@@H]2CCCN2C(=O)[C@H](Cc2ccccc2)NC(=O)[C@H](Cc2c[nH]cn2)NC(=O)[C@@H](NC(=O)[C@H](CCC(=O)O)NC(=O)CC(C)C)[C@@H](C)O)CC(=O)NC[C@@H](C(=O)N[C@@H](CCCCN)C(N)=O)NC(=O)CNC(=O)[C@H](CCCCN)NC(=O)[C@H](CO)NC(=O)[C@H](CCCNC(=N)N)NC(=O)[C@@H]2CCCN2C(=O)[C@H](CCC(=O)O)NC(=O)[C@H](Cc2ccccc2)NC(=O)[C@H](CCCCNC(=O)COCCOCCNC(=O)COCCOCCNC(=O)CC[C@H](NC(=O)CCCCCCCCCCCCCCCCC(=O)O)C(=O)O)NC1=O
B3: Isovaleric Acid-E-T-H-[Dpa]-P-[Lys(1PEG2_1PEG2_IsoGlu_C18_Diacid)]-N_Ethyl_Phe (peptide)
peptide: XETHXPXX
modifications: N-term Isovaleric Acid; Dpa4; Lys(1PEG2_1PEG2_IsoGlu_C18_Diacid)6; C-term N_Ethyl_Phe
B4: Isovaleric Acid-E-T-H-[Dpa]-P-d[Lys(1PEG2_1PEG2_Ahx_C18_Diacid)]-[bhPhe]-NH2 (peptide)
peptide: XETHXPXX
modifications: not fully specified; N-term Isovaleric Acid; Dpa4; d[Lys(1PEG2_1PEG2_Ahx_C18_Diacid)]6; bhPhe7; C-term NH2
B5: Isovaleric Acid-E-T-H-[Dpa]-P-[Lys(1PEG2_1PEG2_IsoGlu_C18_Diacid)]-Propyl_Amine (peptide)
peptide: XETHXPXX
modifications: N-term Isovaleric Acid; Dpa4; Lys(1PEG2_1PEG2_IsoGlu_C18_Diacid)6; C-term Propyl_Amine
B6: Isovaleric Acid-E-T-H-[Dpa]-P-[Lys(1PEG2_1PEG2_IsoGlu_C18_Diacid)]-N_Butyl_Phe (peptide)
peptide: XETHXPXX
modifications: N-term Isovaleric Acid; Dpa4; Lys(1PEG2_1PEG2_IsoGlu_C18_Diacid)6; C-term N_Butyl_Phe
B7: Isovaleric Acid-E-T-H-[Dpa]-P-L-I-[Lys(Ahx_Palm)]-L-NH2 (peptide)
peptide: Isovaleryl-ETH[Dip]PLIK([Ahx-Palmitoyl])L-NH2
SMILES: CCCCCCCCCCCCCCCC(=O)NCCCCCC(=O)NCCCC[C@H](NC(=O)[C@@H](NC(=O)[C@H](CC(C)C)NC(=O)[C@@H]1CCCN1C(=O)[C@@H](NC(=O)[C@H](Cc1c[nH]cn1)NC(=O)[C@@H](NC(=O)[C@H](CCC(=O)O)NC(=O)CC(C)C)[C@@H](C)O)C(c1ccccc1)c1ccccc1)[C@@H](C)CC)C(=O)N[C@@H](CC(C)C)C(N)=O
B8: Isovaleric Acid-L-T-H-[Dpa]-P-A-I-[Lys(Ahx_Palm)]-[bhPhe]-NH2 (peptide)
peptide: Isovaleryl-LTH[Dip]PAIK([Ahx-Palmitoyl])[β3hF]-NH2
SMILES: CCCCCCCCCCCCCCCC(=O)NCCCCCC(=O)NCCCC[C@H](NC(=O)[C@@H](NC(=O)[C@H](C)NC(=O)[C@@H]1CCCN1C(=O)[C@@H](NC(=O)[C@H](Cc1c[nH]cn1)NC(=O)[C@@H](NC(=O)[C@H](CC(C)C)NC(=O)CC(C)C)[C@@H](C)O)C(c1ccccc1)c1ccccc1)[C@@H](C)CC)C(=O)N[C@H](CC(N)=O)Cc1ccccc1
B9: Isovaleric Acid-L-T-H-[Dpa]-P-[Lys(1PEG2_1PEG2_IsoGlu_C18_Diacid)]-[bhPhe]-NH2 (peptide)
peptide: Isovaleryl-LTH[Dip]PK([AEEA-AEEA-γGlu-C18 diacid])[β3hF]-NH2
SMILES: CC(C)CC(=O)N[C@@H](CC(C)C)C(=O)N[C@H](C(=O)N[C@@H](Cc1c[nH]cn1)C(=O)N[C@H](C(=O)N1CCC[C@H]1C(=O)N[C@@H](CCCCNC(=O)COCCOCCNC(=O)COCCOCCNC(=O)CC[C@H](NC(=O)CCCCCCCCCCCCCCCCC(=O)O)C(=O)O)C(=O)N[C@H](CC(N)=O)Cc1ccccc1)C(c1ccccc1)c1ccccc1)[C@@H](C)O
B10: Isovaleric Acid-E-T-H-[Dpa]-P-[Lys(1PEG2_1PEG2_Ahx_C18_Diacid)]-[bhPhe]-NH2 (peptide)
peptide: XETHXPXX
modifications: N-term Isovaleric Acid; Dpa4; Lys(1PEG2_1PEG2_Ahx_C18_Diacid)6; bhPhe7; C-term NH2
B11: Isovaleric Acid-L-T-H-[Dpa]-P-L-I-[Lys(Ahx_Palm)]-[bhPhe]-NH2 (peptide)
peptide: Isovaleryl-LTH[Dip]PLIK([Ahx-Palmitoyl])[β3hF]-NH2
SMILES: CCCCCCCCCCCCCCCC(=O)NCCCCCC(=O)NCCCC[C@H](NC(=O)[C@@H](NC(=O)[C@H](CC(C)C)NC(=O)[C@@H]1CCCN1C(=O)[C@@H](NC(=O)[C@H](Cc1c[nH]cn1)NC(=O)[C@@H](NC(=O)[C@H](CC(C)C)NC(=O)CC(C)C)[C@@H](C)O)C(c1ccccc1)c1ccccc1)[C@@H](C)CC)C(=O)N[C@H](CC(N)=O)Cc1ccccc1
B12: Isovaleric Acid-L-T-H-[Dpa]-P-A-I-[Lys(Ahx_Palm)]-L-NH2 (peptide)
peptide: Isovaleryl-LTH[Dip]PAIK([Ahx-Palmitoyl])L-NH2
SMILES: CCCCCCCCCCCCCCCC(=O)NCCCCCC(=O)NCCCC[C@H](NC(=O)[C@@H](NC(=O)[C@H](C)NC(=O)[C@@H]1CCCN1C(=O)[C@@H](NC(=O)[C@H](Cc1c[nH]cn1)NC(=O)[C@@H](NC(=O)[C@H](CC(C)C)NC(=O)CC(C)C)[C@@H](C)O)C(c1ccccc1)c1ccccc1)[C@@H](C)CC)C(=O)N[C@@H](CC(C)C)C(N)=O
B13: Isovaleric Acid-E-T-H-F-P-Dap-I-[Lys(1PEG2_1PEG2_IsoGlu_C18_Diacid)]-F-E-P-R-S-K-G-D-K-NH2 (peptide)
peptide: Isovaleryl-ETHFP[Dap]IK([AEEA-AEEA-γGlu-C18 diacid])FEPRSKGDK-NH2
modifications: lactam 6-16
SMILES: CC[C@H](C)[C@@H]1NC(=O)[C@@H](NC(=O)[C@@H]2CCCN2C(=O)[C@H](Cc2ccccc2)NC(=O)[C@H](Cc2c[nH]cn2)NC(=O)[C@@H](NC(=O)[C@H](CCC(=O)O)NC(=O)CC(C)C)[C@@H](C)O)CNC(=O)C[C@@H](C(=O)N[C@@H](CCCCN)C(N)=O)NC(=O)CNC(=O)[C@H](CCCCN)NC(=O)[C@H](CO)NC(=O)[C@H](CCCNC(=N)N)NC(=O)[C@@H]2CCCN2C(=O)[C@H](CCC(=O)O)NC(=O)[C@H](Cc2ccccc2)NC(=O)[C@H](CCCCNC(=O)COCCOCCNC(=O)COCCOCCNC(=O)CC[C@H](NC(=O)CCCCCCCCCCCCCCCCC(=O)O)C(=O)O)NC1=O
B14: Isovaleric Acid-L-T-H-[Dpa]-P-d[Lys(1PEG2_1PEG2_IsoGlu_C18_Diacid)]-[bhPhe]-NH2 (peptide)
peptide: Isovaleryl-LTH[Dip]P[dK]([AEEA-AEEA-γGlu-C18 diacid])[β3hF]-NH2
SMILES: CC(C)CC(=O)N[C@@H](CC(C)C)C(=O)N[C@H](C(=O)N[C@@H](Cc1c[nH]cn1)C(=O)N[C@H](C(=O)N1CCC[C@H]1C(=O)N[C@H](CCCCNC(=O)COCCOCCNC(=O)COCCOCCNC(=O)CC[C@H](NC(=O)CCCCCCCCCCCCCCCCC(=O)O)C(=O)O)C(=O)N[C@H](CC(N)=O)Cc1ccccc1)C(c1ccccc1)c1ccccc1)[C@@H](C)O
B15: Isovaleric Acid-E-T-H-[Dpa]-P-d[Lys(1PEG2_1PEG2_IsoGlu_C18_Diacid)]-[bhPhe]-NH2 (peptide)
peptide: XETHXPXX
modifications: N-term Isovaleric Acid; Dpa4; d[Lys(1PEG2_1PEG2_IsoGlu_C18_Diacid)]6; bhPhe7; C-term NH2
B16: Isovaleric Acid-L-T-H-[Dpa]-[Lys(1PEG2_1PEG2_IsoGlu_C18_Diacid)]-Propyl_Amine (peptide)
peptide: Isovaleryl-LTH[Dip]K([AEEA-AEEA-γGlu-C18 diacid])-NHPr
SMILES: CCCNC(=O)[C@H](CCCCNC(=O)COCCOCCNC(=O)COCCOCCNC(=O)CC[C@H](NC(=O)CCCCCCCCCCCCCCCCC(=O)O)C(=O)O)NC(=O)[C@@H](NC(=O)[C@H](Cc1c[nH]cn1)NC(=O)[C@@H](NC(=O)[C@H](CC(C)C)NC(=O)CC(C)C)[C@@H](C)O)C(c1ccccc1)c1ccccc1
B17: Isovaleric Acid-E-T-H-[Dpa]-P-[Lys(1PEG2_1PEG2_IsoGlu_C18_Diacid)]-[bhPhe]-NH2 (peptide)
peptide: XETHXPXX
modifications: N-term Isovaleric Acid; Dpa4; Lys(1PEG2_1PEG2_IsoGlu_C18_Diacid)6; bhPhe7; C-term NH2

These binders were tested against T1, human ferroportin (SLC40A1) fused in … (assay: cell-based or functional assay).

First: Isovaleryl-LTH[Dip]PK([Ahx-Palmitoyl])[N_Butyl_Phe] [Isovaleric Acid-L-T-H-[Dpa]-P-[Lys(Ahx_Palm)]-N_Butyl_Phe]
Second: B1
The “FPN IC50” value of the first is 4.6-fold lower: 74 nM for the first, 342 nM for the second.

Going from B2 to B3, the “FPN IC50” value falls from > 10000 nM to 408 nM.

Going from Isovaleryl-LTH[Dip]K([AEEA-AEEA-γGlu-C18 diacid])-Benzyl_Amine [Isovaleric Acid-L-T-H-[Dpa]-[Lys(1PEG2_1PEG2_IsoGlu_C18_Diacid)]-Benzyl_Amine] to B4, the “FPN IC50” value falls from > 3000 nM to 86.8 nM.

First: B5
Second: Isovaleryl-LTH[Dip]K([AEEA-AEEA-γGlu-C18 diacid])[N_Ethyl_Phe] [Isovaleric Acid-L-T-H-[Dpa]-[Lys(1PEG2_1PEG2 IsoGlu_C18_Diacid)]-N_Ethyl Phe]
The “FPN IC50” value of the first is lower: 470 nM for the first, > 3000 nM for the second.

Going from B6 to B7, the “FPN IC50” value falls from 448 nM to 37.4 nM (12-fold).

Going from B8 to Isovaleryl-LTH[Dip]K([AEEA-AEEA-γGlu-C18 diacid])[N_Butyl_Phe] [Isovaleric Acid-L-T-H-[Dpa]-[Lys(1PEG2_1PEG2_IsoGlu_C18_Diacid)]-N_Butyl Phe], the “FPN IC50” value rises from 1580 nM to > 3000 nM.

B9 and B10 are within 1.5-fold of each other in “FPN IC50” value: 482 nM for the first, 367 nM for the second.

First: Isovaleryl-LTH[Dip]PK([Ahx-Palmitoyl])[N_Ethyl_Phe] [Isovaleric Acid-L-T-H-[Dpa]-P-[Lys(Ahx_Palm)]-N_Ethyl_Phe]
Second: B11
The “FPN IC50” value of the first is 69-fold lower: 18.3 nM for the first, 1270 nM for the second.

Compared with Isovaleryl-LTH[Dip]PK([Ahx-Palmitoyl])-NHPr [Isovaleric Acid-L-T-H-[Dpa]-P-[Lys(Ahx_Palm)]-Propyl_Amine], B12 is 1.9-fold higher in “FPN IC50” value: 87.3 nM for the first, 169 nM for the second.

Going from B13 to B14, the “FPN IC50” value falls from 6110 nM to 394 nM (16-fold).

Going from B15 to B16, the “FPN IC50” value rises from 1490 nM to > 3000 nM.

For B17, the “FPN IC50” value was 1690 nM.

Source: US20240066131A1 (Protagonist Therapeutics, Inc., priority 2020, published 2024)
